Tested on: MS2 coat protein
Assay: apparent KD of MS2 coat protein; designed switch direction (-1 OFF switch, 1 ON switch): 1; higher = weaker reporter binding
Procedure, shortened: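 Designed RNA switches were transcribed on Illumina chips by stalled E. coli RNA polymerase and titrated with SNAP-549-labelled MS2 coat protein from 0.7 or 1.5 nM, doubling to 3 µM. Step length ran from 0.8–1.5 h at the lowest concentration to 10–20 min at the highest. The apparent KD is the median over clusters for each design, from curve-fitted normalised cluster fluorescence.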

[1] = input ligand: microRNA oligo, concentration not stated
[2] = Eterna round: R95, input ligand: FMN 200 uM
[3] = Eterna round: R95, input ligand: microRNA oligo, concentration not stated
[4] = Eterna round: R95, input ligand: none

| Sequence | apparent KD of MS2 coat protein (input ligand: FMN 200 uM) [nM] | apparent KD of MS2 coat protein [1] [nM] | apparent KD of MS2 coat protein (input ligand: none) [nM] | apparent KD of MS2 coat protein [2] [nM] | apparent KD of MS2 coat protein [3] [nM] | apparent KD of MS2 coat protein [4] [nM] |
| --- | --- | --- | --- | --- | --- | --- |
| UAUUAAUCUGUAGGAUAUCUAGGAUAUGGACGAGGAUCACCCGAGCAGCAUCAGCGCACCAGAGGAGAGAAGGACGCUUUGGUG [pwkr ssNG2 2F5 2FMN.2] (Eterna round: R96, puzzle: Same State NG 2) | 325 | 208 | 367 |  |  |  |
| GAGUGGCAGUUAGGAUAUACAGUGAUAAUGAUAGUAGAAGGAACAGACAUGAGGAUCACCCAUGUAGGACUAAUCCAGAGAGAG [Parity 33 - Jieux - Same State NG 1] (Eterna round: R96, puzzle: Same State NG 1) | 30.8 | 29.8 | 34.9 |  |  |  |
| UUUAGUUGCGCGCAGGAUAUGUAUUAAUAUACAUGAGGAUCACCCAUGUGAGACCAAAUAGGUCUGCAGAAGGGCGAAUCGCGAC [Laonerce - 28] (puzzle: Same State 2) |  |  |  | 45.4 | 139 | 199 |
| CCGUUCAAUAAACAUGAGGAUCACCCAUGUAAUAAUAAGGGUGAGGAUAUGCAUCUGAAACAGGUGCAGAAGGCAUAAGAGCGG [JL SSNG3 3.90] (Eterna round: R96, puzzle: Same State NG 3) | 487 | 289 | 585 |  |  |  |
| GAGAAGAGGGACAAGGAUAUGUCAGGAGAGACAUGAGGAUCACCCAUGUAGAGGUUGGAGGAGAGACAGAAGGUGUCGGGAGCGA [JR_SS2_Sub013] (puzzle: Same State 2) |  |  |  | 86.8 | 73.7 | 109 |
| AUAAAACAUGAGGAUCACCCAUGUCAACAAAGUCGAGGAUAUGGGCAAAUAAAAUAAGAACUAGAAGGCGAAUAAU [salish99_ss1_r3_031] (puzzle: Same State 1) |  |  |  | 374 | 1770 | 139 |
| GUGGUGUAGAUACAGGAUAUGUUGCUCGUAACAUGAGGAUCACCCAUGUAUCUAUGAGAAUAAAUGCAGAAGGGUGCACACCACG [Mat - Same State 2 - Mod of UCT - D73] (puzzle: Same State 2) |  |  |  | 19.1 | 352 | 311 |
| UGGAUCUAGGCUUGCCUGGGUCCAUGCUGACAUGAGGAUCACCCAUGUGCAUCCUACAAGCUUUUUGCUUGUCUGCC (Eterna round: R96, puzzle: Sensor for hsa-mir-208a) | 416 | 267 | 216 |  |  |  |
| AGUCCAGCCUGAGCUGGACAAAUGCAAGUACAUGAGGAUCACCCAUGUUCAUGUACAAGCUUUUUGCUCGUCUUAAA [JL zipper 59] (Eterna round: R96, puzzle: Sensor for hsa-mir-208a) | 853 | 21.3 | 931 |  |  |  |
| AUAAAACAUGAGGAUCACCCAUGUCAACAAAGUCGAGGAUAUGGGCAAAUAAAAUAAGAACCAGAAGGCGAAUAAU [salish99_SS1_r3_001] (puzzle: Same State 1) |  |  |  |  | 233 |  |
| UUAAGCCACGGGCAGGAUAUGUAUUAAAGUACAUGAGGAUCACCCAUGUGCAGGUGUAACACCUGACAGAAGGGCCAAUCGCGGC [Soondi - 3] (puzzle: Same State 2) |  |  |  | 16 | 68 | 72.7 |
| UGAUCGCUUGGAGGAUAUCCAACUAUCCUAGUUGGAGAAGGCCAAGCUACAGAGCUAAGCUUGGAAGUCACUUCGAAUCAACAC [pwkr ssNG1 F9.4] (Eterna round: R96, puzzle: Same State NG 1) | 2.23 | 129 | 155 |  |  |  |
| UUGAAGAAUUAAGGAUAUUGAAUACAUAUGUUUAACAUGAGGAUCACCCAUGUGGGUUGCGGUGUCGAGAAGGUAAAAUAAUAG [Mat - same State NG 2 - JL mod - D95] (Eterna round: R96, puzzle: Same State NG 2) | 194 | 124 | 329 |  |  |  |
| AUUAUUAAUGCAGGAUAUGAUUAACAUGAGGAUCACCCAUGUGGUGUUGUGAGUAAGGAGAGUGAUCAGAAGGGCAUUUUUUGU [JMF's solution 16] (Eterna round: R96, puzzle: Same State NG 2) | 798 | 264 | 615 |  |  |  |
| UCUUGGUUUUUGCUCGUUUUUUGUGUUGAACAUGAGGAUCACCCAUGUAUUGUACAAUCCAGUUUAAUAAUGGUCCA [Mod of one of JR's submissions 2] (puzzle: Sensor for hsa-mir-208a) |  |  |  | 55 | 51 | 61.7 |
| GUGCUCGUGUGAGGAUAUGUUGCCGGGUCGGCUGCAGAAGGUACUAUUAUACAUGAGGAUCACCCAUGUCGCUUUUCUCCGGUA [salish99_SSNG1_r04_921] (Eterna round: R96, puzzle: Same State NG 1) | 88 | 49.6 | 73.5 |  |  |  |

| Sequence | apparent KD of MS2 coat protein (input ligand: FMN 200 uM) [nM] | apparent KD of MS2 coat protein [1] [nM] | apparent KD of MS2 coat protein (input ligand: none) [nM] | apparent KD of MS2 coat protein [2] [nM] | apparent KD of MS2 coat protein [3] [nM] | apparent KD of MS2 coat protein [4] [nM] |
| --- | --- | --- | --- | --- | --- | --- |
| GGAAGGAGGUCAGGAUAUGAACGGAAGGUACAUGAGGAUCACCCAUGUUACGGAGGAAACCCACGUUAGAAGGGACAAGGAAGG [AK SSNG2-V2-4] (Eterna round: R96, puzzle: Same State NG 2) | 19.6 | 15.6 | 30.5 |  |  |  |
| AGUCCAGCCUAAGCUGGACAAAAGCAUGUACAUGAGGAUCACCCAUGUUCAUGUACAAGCUUUUUGCUCGUCUUAAU [Mat - hsa-mir-208a - Mod of JL - 60] (puzzle: Sensor for hsa-mir-208a) |  |  |  | 608 | 18.1 | 697 |
| GAAAAACAUGAGGAUCACCCAUGUAAAAAAAUGGGAGGAUAUACAAAGACGAAAGUCAAAGUAGAAGGCCUGAAAG [same state 2] (Eterna round: R96, puzzle: Same State 1) |  | 42.7 |  |  |  |  |
| UAUCCAUAGAUAGGAUAUCAGUAUACAUGAGGAUCACCCAUGUUAUACUUGGUUUUAAGUUAGUCUGAGAAGGAUCUUGAUGAA [SameState NG2 #4] (Eterna round: R96, puzzle: Same State NG 2) | 12.6 | 11 | 12.9 |  |  |  |
| AGUAUACAUGAGGAUCACCCAUGUCAGUAACUGACAGGAUAUGCGUUGCAUCACUGUAAUGCAGAAGGGUCUUGUA [Same State 1 - Mod of JMF's solution 1] (puzzle: Same State 1) |  |  |  | 98.2 | 181 | 415 |
| UCUUGGUUUUUGCUCGUUUUUUGUGUUGAACAUGAGGAUCACCCAUGUAUUGUACAAUCCGGUUUAAUAAUGGUCCG [JMF 51] (puzzle: Sensor for hsa-mir-208a) |  |  |  | 35.2 | 26.7 | 36.3 |
| AAAGAAAACGCAGGAUAUCCCGGAAUGGAAACGGGAGAAGGGUGACCGGUACAUGAGGAUCACCCAUGUAGAGCACAGGCUCAA [Sousdi] (Eterna round: R96, puzzle: Same State NG 1) | 3380 | 39.4 | 922 |  |  |  |
| GAGCCAGUCCGAGGAUAUUACAUGAGGAUCACCCAUGUAGGCUCAGAAAAGAAAAGAGAGCCUUGGGAGAAGGCGGACUGGCUC [Xeonanisa<<9] (Eterna round: R96, puzzle: Same State NG 2) | 8.19 | 20.1 | 39.1 |  |  |  |
| AUAAAACAUGAGGAUCACCCAUGUCUACAAAGUCGAGGAUAUGGGCAAAUAAUAUAAGAACCAGAAGGCGAAUAAU [SS1 Teenbexe 1] (puzzle: Same State 1) |  |  |  | 54.2 | 565 | 14400 |
| UUUAGUUGCGGGCAGGAUAUGUAUUAAAAUACAUGAGGAUCACCCAUGUGAGGUCAUAACGACCUACAGAAGGGCCAAUCGCGAC [Laonerce - 15] (puzzle: Same State 2) |  |  |  | 17.2 | 64.4 | 86.1 |
| AAAGUACAUGAGGAUCACCCAUGUCCCAAUGAAUAAGGAUAUACGAAAAUAAAAUAAAAUGUAGAAGGUAUAAUAG [Same State 1 #1] (puzzle: Same State 1) |  |  |  |  | 30.5 |  |
| AAGUUAAGCUUUUUGUUCUGCCUAUUCUGACAUGAGGAUCACCCAUGUGGUCGAACGACUACGUGUGUAGUUGAGAU [JR_SHM208A_Sub030] (puzzle: Sensor for hsa-mir-208a) |  |  |  | 174 | 252 | 278 |
| GGACGUCAACUCAACAAUUAAACAUGAGGAUCACCCAUGUCACAGGAUAUGGAUCCUAAUUGGAUCCAGAAGGGUGAGACGUCC [Fiskers NG3ss - 42] (Eterna round: R96, puzzle: Same State NG 3) | 95.9 | 100 | 79.2 |  |  |  |
| AUUGCUAGCACAGGAUAUCAUGCGAAAAUUGCGUGAGAAGGGUGGACACUGUCAUUCACGGAGGACAUGAGGAUCACCCAUGUC [SameState NG1 #79] (Eterna round: R96, puzzle: Same State NG 1) | 77.1 | 59 | 74.9 |  |  |  |
| CUUAUUAAUGCAGGAUAUGAUUAACAUGAGGAUCACCCAUGUGGUGUUGUGAGUAAGGAGAGUGAUCAGAAGGGCAUUUUUUUU [JMF's solution 41] (Eterna round: R96, puzzle: Same State NG 2) | 711 | 410 | 656 |  |  |  |

Reference: the supplement of paper PMC9170038
